We go through six variants from article PMC7026398, “Structural and functional insight into the effect of AFF4 dimerization on activation of HIV-1 proviral transcription” (Cell Discovery, 2020).

B1: human AFF4-THD (902-1163), wild type [human] / itself (parent)
chain: RRTKLVFDDRNYSADHYLQEAKKLKHNADALSDRFEKAVYYLDAVVSFIECGNALEKNAQESKSPFPMYSETVDLIKYTMKLKNYLAPDATAADKRLTVLCLRCESLLYLRLFKLKKENALKYSKTLTEHLKNSYNNSQAPSPGLGSKAVGMPSPVSPKLSPGNSGNYSSGASSASASGSSVTIPQKIHQMAASYVQVTSNFLYATEIWDQAEQLSKEQKEFFAELDKVMGPLIFNASIMTDLVRYTRQGLHWLRQDAKLIS
B2: AFF1-THD (953-1210), wild type [not stated] / itself (parent)
chain: GKPQVKFDKQQADLHMREAKKMKQKAELMTDRVGKAFKYLEAVLSFIECGIATESESQSSKSAYSVYSETVDLIKFIMSLKSFSDATAPTQEKIFAVLCMRCQSILNMAMFRCKKDIAIKYSRTLNKHFESSSKVAQAPSPCIASTGTPSPLSPMPSPASSVGSQSSAGSVGSSGVAATISTPVTIQNMTSSYVTITSHVLTAFDLWEQAEALTRKNKEFFARLSTNVCTLALNSSLVDLVHYTRQGFQQLQELTKTP

The first assay covers variants of B1. In words: analytical gel filtration. To be noted: with itself; read off a plot.
For RRTKLVFDDRNYSADHYLQEAKKLKHNADALSDRFEKAVYYLDAVVSFIECGNALEKNAQESKSPFPMYSETVDLIKYTMKLKNYLAPDATAADKRLTVLCLRCESLLYLRLAKLKKENALKYSKTLTEHLKNSYNNSQAPSPGLGSKAVGMPSPVSPKLSPGNSGNYSSGASSASASGSSVTIPQKIHQMAASAVQVTSNFLYATEIWDQAEQLSKEQKEFFAELDKVMGPLIFNASIMTDLVRYTRQGLHWLRQDAKLIS [chain 1 F113A Y195A], the screen value worked out at 10.8 mL. As for RRTKLVFDDRNYSADHYLQEAKKLKHNADALSDRFEKAVYYLDAVVSFIECGNALEKNAQESKSPFPMYSETVDLIKYTMKLKNYLAPDATAADKRLTVLCLRCESLLYLRLFKLKKENALKYSKTLTEHLKNSYNNSQAPSPGLGSKAVGMPSPVSPKLSPGNSGNYSSGASSASASGSSVTIPQKIHQMAASAVQVTSNFLYATEIWDQAEQLSKEQKEFFAELDKVMGPLIFNASIMTDLVRYTRQGLHWLRQDAKLIS [chain 1 Y195A], the screen value amounted to 10.9 mL.

In the case of RRTKLVFDDRNYSADHYLQEAKKLKHNADALSDRFEKAVYYLDAVVSFIECGNALEKNAQESKSPFPMYSETVDLIKYTMKLKNYLAPDATAADKRLTVLCLRCESLLYLRLAKLKKENALKYSKTLTEHLKNSYNNSQAPSPGLGSKAVGMPSPVSPKLSPGNSGNYSSGASSASASGSSVTIPQKIHQMAASYVQVTSNFLYATEIWDQAEQLSKEQKEFFAELDKVMGPLIFNASIMTDLVRYTRQGLHWLRQDAKLIS [chain 1 F113A], the screen value came to 10.6 mL.

The variants in a further assay derive from B1. Kind of assay: sedimentation velocity analytical ultracentrifugation. To be noted: with itself.
Regarding RRTKLVFDDRNYSADHYLQEAKKLKHNADALSDRFEKAVYYLDAVVSFIECGNALEKNAQESKSPFPMYSETVDLIKYTMKLKNYLAPDATAADKRLTVLCLRCESLLYLRLAKLKKENALKYSKTLTEHLKNSYNNSQAPSPGLGSKAVGMPSPVSPKLSPGNSGNYSSGASSASASGSSVTIPQKIHQMAASAVQVTSNFLYATEIWDQAEQLSKEQKEFFAELDKVMGPLIFNASIMTDLVRYTRQGLHWLRQDAKLIS [chain 1 F113A Y195A], the screen value worked out at 28.9 kD.

The same assay, now with this note: with itself; read off a plot.
For the variant RRTKLVFDDRNYSADHYLQEAKKLKHNADALSDRFEKAVYYLDAVVSFIECGNALEKNAQESKSPFPMYSETVDLIKYTMKLKNYLAPDATAADKRLTVLCLRCESLLYLRLAKLKKENALKYSKTLTEHLKNSYNNSQAPSPGLGSKAVGMPSPVSPKLSPGNSGNYSSGASSASASGSSVTIPQKIHQMAASAVQVTSNFLYATEIWDQAEQLSKEQKEFFAELDKVMGPLIFNASIMTDLVRYTRQGLHWLRQDAKLIS [chain 1 F113A Y195A], the screen value is 2.2 S.

Variants of B2 are the subject of the next assay. Kind of assay: analytical gel filtration. To be noted: with itself; read off a plot.
Regarding GKPQVKFDKQQADLHMREAKKMKQKAELMTDRVGKAFKYLEAVLSFIECGIATESESQSSKSAYSVYSETVDLIKFIMSLKSFSDATAPTQEKIFAVLCMRCQSILNMAMARCKKDIAIKYSRTLNKHFESSSKVAQAPSPCIASTGTPSPLSPMPSPASSVGSQSSAGSVGSSGVAATISTPVTIQNMTSSYVTITSHVLTAFDLWEQAEALTRKNKEFFARLSTNVCTLALNSSLVDLVHYTRQGFQQLQELTKTP [chain 1 F111A], the screen value turned out to be 9.4 mL. As to GKPQVKFDKQQADLHMREAKKMKQKAELMTDRVGKAFKYLEAVLSFIECGIATESESQSSKSAYSVYSETVDLIKFIMSLKSFSDATAPTQEKIFAVLCMRCQSILNMAMFRCKKDIAIKYSRTLNKHFESSSKVAQAPSPCIASTGTPSPLSPMPSPASSVGSQSSAGSVGSSGVAATISTPVTIQNMTSSAVTITSHVLTAFDLWEQAEALTRKNKEFFARLSTNVCTLALNSSLVDLVHYTRQGFQQLQELTKTP [chain 1 Y193A], the screen value is 9.5 mL. As to GKPQVKFDKQQADLHMREAKKMKQKAELMTDRVGKAFKYLEAVLSFIECGIATESESQSSKSAYSVYSETVDLIKFIMSLKSFSDATAPTQEKIFAVLCMRCQSILNMAMARCKKDIAIKYSRTLNKHFESSSKVAQAPSPCIASTGTPSPLSPMPSPASSVGSQSSAGSVGSSGVAATISTPVTIQNMTSSAATITSHALTAFDLWEQAEALTRKNKEFFARLSTNVCTLALNSSLVDLVHYTRQGFQQLQELTKTP [chain 1 F111A Y193A V194A V200A], the screen value came to 10.5 mL.

In the next assay the parent is B2. In words: sedimentation velocity analytical ultracentrifugation. To be noted: with itself.
For the variant GKPQVKFDKQQADLHMREAKKMKQKAELMTDRVGKAFKYLEAVLSFIECGIATESESQSSKSAYSVYSETVDLIKFIMSLKSFSDATAPTQEKIFAVLCMRCQSILNMAMARCKKDIAIKYSRTLNKHFESSSKVAQAPSPCIASTGTPSPLSPMPSPASSVGSQSSAGSVGSSGVAATISTPVTIQNMTSSAATITSHALTAFDLWEQAEALTRKNKEFFARLSTNVCTLALNSSLVDLVHYTRQGFQQLQELTKTP [chain 1 F111A Y193A V194A V200A], the screen value stood at 27.2 kD.

The assay is the same for the next values; noted with them: with itself; read off a plot.
On to GKPQVKFDKQQADLHMREAKKMKQKAELMTDRVGKAFKYLEAVLSFIECGIATESESQSSKSAYSVYSETVDLIKFIMSLKSFSDATAPTQEKIFAVLCMRCQSILNMAMARCKKDIAIKYSRTLNKHFESSSKVAQAPSPCIASTGTPSPLSPMPSPASSVGSQSSAGSVGSSGVAATISTPVTIQNMTSSAATITSHALTAFDLWEQAEALTRKNKEFFARLSTNVCTLALNSSLVDLVHYTRQGFQQLQELTKTP [chain 1 F111A Y193A V194A V200A], for which the screen value was 2.2 S.
